Test: soluble on expression in E. coli; label from the status in PepcDB or PDB records

| Sequence | soluble on expression in E. coli |
| --- | --- |
| MGSDKIHHHHHHMKKYSLTPAMLEVCKEYNFFSDVSGFMPLTSENIKEIKIGKKFAYSHQDNNKPTHQKLSKIIFENFLSNIPLNQSAIAYVKKKSYFDFIEPHRNNYFFLRIDLKDFFHSISEDLLKRTLSDYFSSESLSETIKQSNIDAIFTFLTVNLKSDSSNVKFLDKKILPIGFPLSPNLANIVFRKTDLLLEKLCDMHGVTYTRYADDMLFSSRGIMEKNLLFRKNNNYKKPYIHSDNFLSEIKYLVSIDGFFINHNKTIKSVNTLSLNGYTISGTNFPDIEGKIRLSNKKTKIIEKVIHEININPDDKVTFEKCFKKEFPKPKYEKNRDNFINNLCTIKINQKLLGYRSYLISIIKFNNKFNCISESSEDKYNTLLSKIENVIKKRIK | not soluble |
| AHHHHHHGSKAIILAAGKGERLRPLTDDRPKVVLKIANKPIISYVLENLDPFVDEFIIVVKYMKEKVIDLLGDEFRGKPITYVEQGEEEGTAAAVYSVKEFIESNEEFFVVNGDLYFEPDAVKGLLHVFKKEKGDAGIVVKEFENLSQYGMVEVENGKVKGIIEKPGNVKGYANLGIYIFKSDVFDYIENTEISERGEYEITDTINLMIKDGKSVVYYNYEGFWSDIGRPWDLLEVNEYILKTKLKHEIRGVVEEGATIIPPVEIGEGTIVRAGSYIIGPVKIGKNCRIGPNCYIRPYTSIGDNCHIGNAVEVKNSIIMDNSNAPHLNYVGDSIIGENTNLGAGTITANLRHDKGTIKVEVKGKLEDSGRRKLGAIIGHNVKVGINVTIYPGRKIGSNSFIGPGVIVDKNIPQNVLVTVKQEKKVIEK | soluble |
| MNLASVLLLLAACHLSVSVNGQEHKEAIELSMANHDHVLGSAQVVFVAFCADWCPFSRRLKPIFEESARVFHQENPQASAVWAIVDSQRQADIGDKYFVNKYPTMKVFVNGELITKEYRSTRSVEALTNFVKFQLSTAINEFSSQDQLNQEMDKSKRNVVAWLKKDGPEFANLKKVASILREDCSFWVPTDHFGTQTNDNKLSFFDPDSNEEAKFTGNFNDYDFVKQWVTDKCIPLVREVTFENVEELTEEGMPFLIYFRDPDNKTTDKVFGEAVARELYDQRSAINPLLADGHKFAHPLKHLGKTKEDLPVLAIDSFQHMYLFPDMTQMNIPGKLREFVMDLHSGKLHKDFHENLDQRMIELAKAKAARGITDDHEAQAPSTRPIDTTPPPSVFKELKPSDKRYSILQKSEL | not soluble |
| MSAPDLFVAHFREAVPYIRQMRGKTLVAGIDDRLLEGDTLNKLAADIGLLSQLGIRLVLIHGARHFLDRHAAAQGRTPHYCRGLRVTDETSLEQAQQFAGTVRSRFEAALCGSVSGFARAPSVPLVSGNFLTARPIGVIDGTDMEYAGVIRKTDTAALRFQLDAGNIVWLPPLGHSYSGKTFYLDMLQTAASAAVSLQAEKLVYLTLSDGISRPDGTLAETLSAQEAQSLAEHAGGETRRLISSAVAALEGGVHRVQILNGAADGSLLQELFTRNGIGTSIAKEAFVSIRQAHSGDIPHIAALIRPLEEQGILLHRSREYLENHISEFSILEHDGNLYGCAALKTFAEADCGEIACLAVSPQAQDGGYGERLLAHIIDKARGIGISRLFALSTNTGEWFAERGFQTASEDELPETRRKDYRSNGRNSHILVRRLHR | not soluble |
| MSLSMSLRDQLLKAGLVNEKQAKQATKQKQKQQRLEHKNQVDKDDSQRQAAEQAKAEKLARDQELNRQQQEKAEKKAKAAQIKQLIEGTRLPKLESDDYYNFVDAKKVKRIAVNDLIRDKLSRGSLAIVSYDGRYEIVPRDAAVKIQERDPRRVVLLNVQSQEPDEDDPYKDYVVPDDLMWEGGSHHHHHH | soluble |
| MNSPDRFRLTSCDVTPDRTGMFTAIWTCYGRLAPGWRVVFGIESGTDRLEIEAVADAGVCAPLPDGVADAWLICNGLLIAVLTPELGARLTGGSGYLRFSSSPPHDAVSSTPAHVHRAGIPPRG | not soluble |
| MTNDTNITNDKDINANIAHDDHFNDSIVNEVILEDMKKNRIDHMKYLPDMEVLDSDIMDRVVAEMDAYDYDQYTAADVRAALSHEYRTLEDFKALLSPAAQPFIEEIAQAAQLETRKHFGNSVCMFTPLYISNYCENYCIYCGFNCHNKINRAKLNASEIEKEMAAIAKTGLQEILILTGESKKMSDVEYIGEACKIARKYFKVIGLEVYPMNSDEYAYLHECGADYVTVFQETYNSDKYETLHLAGHKRIFPYRVNAQERALKGGMRGVGFAALLGLDDFRKDALATGYHAYLLQKKYPRAEIAFSCPRLCPIINNDRINPKDVHETQLLQVVCAYRLFMPFASITISTREVARVRDNLVNIAATKISAGVSTGIGSHVDDIEDKGDDQFEISDGRSVDEVFNALLDNGLQPVMSDYIYV | not soluble |

Source: the DeepSol protein solubility set
